Experimental data taken from the DeepSol protein solubility set.

Assay: soluble on expression in E. coli; label from the status in PepcDB or PDB records

| Sequence | soluble on expression in E. coli |
| --- | --- |
| MLEHGGRLREAARRYDIPLADWLDLSTGIAPWPFSLPAIPEQAWTRLPESDDGLEAAACLYYGAERVLPLAGSQAAIQALPRMRRGGRVGVLSPCYAEHAHAWRQAGHLVREIGEAEVEPYLDSLDVLLVVNPNNPTGRVFEPAELLAWHARLQRRGGWLLVDEAFMDCTPQSSLAACSNRPGLIVLRSFGKFFGLAGARLGFALGERPLLQALAEQLGPWTVNGPVRHVAQSALRDRQQQRQQRERLLAASQRLEELLRRHGWPPAGGSALFQRLVDPRCAALHDYLARRGILTRQFEQPASLRLGLPADEAAWARLDAALLGFKEPAHE | not soluble |
| MSLQDLATLYPQKTWSVVNQQFSADQGQLAFAHANTLLALTKECQQPIIHFWTLEKTVILGMMDTKLPELTAATDQLTAAGYHYFVRNAGGLGIVADTGILNLGFYLPEVADHLSINAAYELMKTLFSETFNTSNITIEHFEVQHSYCPGEYDLSINGQKFAGIAQRRSKNGIAILLYASIEGDQQARGTLMQHFYQAGKAQQQTRWTFPDVHPETMANLADLLHQPLTVASVSQQLSASLQSNSGLTLQSDLQTLMQEADYQTQLTKNTQLLRRYQPGYQPEGHHHHHH | soluble |
| MGKRVLIVDDATNGREAVEKYKELKPDIVTMDITMPEMNGIDAIKEIMKIDPNAKIIVCSAMGQQAMVIEAIKAGAKDFIVNTAAVENPSLITQIAQTFGSQAVVVAIDAKRVDGEFMVFTYSGKKNTGILLRDWVVEVEKRGAGEILLTSIDRDGTKSGYDTEMIRFVRPLTTLPIIASGGAGKMEHFLEAFLAGADAALAASVFHFREIDVRELKEYLKKHGVNVRLEGLLEHHH | soluble |
| MSALPPVYSFPPLYTRQPNSLTRRQQISTWIDIISQYCKTKKIWYMSVDGTVINDNELDSGSTDNDDSKKISKNLFNNEDIQRSVSQVFIDEIWSQMTKEGKCLPIDQSGRRSSNTTTTRYFILWKSLDSWASLILQWFEDSGKLNQVITLYELSEGDETVNWEFHRMPESLLYYCLKPLCDRNRATMLKDENDKVIAIKVV | soluble |
| MAHHHHHHMKRDRDDSVVGTPNGKWDVSPHGTLGVEAKEFERNAVRRYVFGLVHLKNEGPKANAVDVSESIVRSFNERFRRIVKIGQGSFGEVYIVFDTVTQTHLTMKRMQLLRGAGRRVMGLCNTTSREMNLLRVLKHVNIVELFDYHVVPDGTLIMLMPVIAYDLVSLIRLWRNGGPRGEPSAGRMPLPTIKCIFRQLLTGLAYLHKERVIHRDLKPTNVMINEKGVVKIIDFGWARFCPARWRGPMTGPPCPVAYRPPEVLLGGEHAVNYDASVDLWCCGCILFEMLSGGKMFINARSEAEAVAGITDWLGSPSSKSTLYYGHSAASLIRFKQNRPSRLAHRCELLHIDRDSVDMLDKMLQLEPKWRMPAEELLRHRWFSSAPVACEPHEISLPEHNMYRWLDSKRPS | soluble |
| KLLAITSCPNGIAHTYMAAENLQKAADRLGVSIKVETQGGIGVENKLTEEEIREADAIIIAADRSVNKDRFIGKKLLSVGVQDGIRKPEELIQKALNGDIPVY | soluble |
| MEPWKQCAQWLIHCKVLPTNHRVTWDSAQVFDLAQTLRDGVLLCQLLNNLRAHSINLKEINLRPQMSQFLCLKNIRTFLTACCETFGMRKSELFEAFDLFDVRDFGKVIETLSRLSRTPIALATGIRPFPTEESINDEDIYKGLPDLIDETLVEDEEDLYDCVYGEDEGGEVYEDLMKAEEAHQPKCPENDIRSCCLAEIKQTEEKYTETLESIEKYFMAPLKRFLTAAEFDSVFINIPELVKLHRNLMQEIHDSIVNKNDQNLYQVFINYKERLVIYGQYCSGVESAISSLDYISKSKEDVKLKLEECSKRANNGKFTLRDLLVVPMQRVLKYHLLLQELVKHTTDPTEKANLKLALDAMKDLAQYVNEVKRDNETLREIKQFQLSIENLNQPVLLFGRPQGDGEIRITTLDKHTKQERHIFLFDLAVIVCKRKGDNYEMKEIIDLQQYKIANNPTTDKENKKWSYGFYLIHTQGQNGLEFYCKTKDLKKKWLEQFEMALSNIRPDYADSNFHDFKMHTFTRVTSCKVCQMLLRGTFYQGYLCFKCGARAHKECLGRVDNCGRVNSGEQGTLKLPEKRTNGLRRTPKQVDPGLPKMQVIRNYSGTPPPALHEGPPLQLQAGDTVELLKGDAHSLFWQGRNLASGEVGFFPSDAVKPCPCVPKPVDYSCQPWYAGAMERLQAETELINRVNSTYLVRHRTKESGEYAISIKYNNEAKHIKILTRDGFFHIAENRKFKSLMELVEYYKHHSLKEGFRTLDTTLQFPYKEPEHSAGQRGNRAGNSLLSPKVLGIAIARYDFCARDMRELSLLKGDVVKIYTKMSANGWWRGEVNGRVGWFPSTYVEEDE | soluble |
| VMGNEYPDWIWGLSTTLRYKDWTLGISLDGRVGGMAYSRTEQTMWNTGVHPDSDNKWRYDEVVNGKKNYVGQGVKVVSGKVEYDTTGKIVSDTRVFAPNDTQVSYESYIKNYNPWSGGKVYQNVHDCTFLKLRELSLLYTMPKSVCEKIHMKGVTLGLIGQNLLIWMKEFKYADPDVDSDDLNSPSMRYVGFNVKFDL | not soluble |
| MNTLTTTSVVLPAPRPAINQGIDINNEMVLNHTAIYENCLAQVTQENTVENALMLLDPYGTAPLSAYAGVWSLEPAEIIVTVQDAAKTAMPVEHLYTLTAGANLLPVLGLVADTENRIVFSQADTPLAVYTLITQPLPPVDSAEVVLGFPIINVTQPATDANKMAPGFYFITHFDRYNYALDQNGLVRWYVTQDYPSYNFVRIDNGHFLTTSEAKNTYLDMYEFDMMGRLHTFYNLDNQFHHSIWPWDSNTIVAPSEYTSGRPDDLKTNEDGVSVVDLTTGLETAYYDMAKVLDTTRVSRPSGTAPGEDPTVKDWLHINQSYVNETNQLLIASGRHQSAVFGVDLQTQALRFILSTHEDWDDAYQPYLLTPVDSEGVALYDFSKQEDIDAADRDFWTWGQHNVVEIANNTPGIVEFMVFDNGNYRSRDDSKSLLPPDNYSRIVHFVVNMNEMTVMRPFEYGKELGARGYSSCVSAKAIQQNGNIVVHFADCTFDENGRAISCQPGESDIIDPQAGSEAMGLLILQEIAPTEKTVLFEATMTSGYYKNAETNGEGYRYDITSFRVYKMDLYALEHHHHHH | soluble |
| MSDFRLKVFLSVAKNLSFTKASQELFVSQPAITKHIQELETCYQVRLFDRQGNKISLTEAGKLLQEHSEKILEDYKRLEYEMHLLHNEYIGDLKLGASTTISQYVLPPLLANFIAKFPQVNLSLLNGNSREIEAALQEHRIDLGLVEGICRLPNLRYTTFLQDELVAVVHTGSKLSLPDEITPEDLSRIPLVLRERGSGTLDVFERALSEHNMKLSSLNVLLYLGSTESIKLFLEHTDCIGIVSIRSISRELLSGTFRVIEIKGMPMLREFCFAQPQGQESGLSQVLMQFAMHHNKKL | not soluble |
| MSLKKIQFFDTTLRDGEQTPGVNFDVKEKIQIALQLEKLGIDVIEAGFPISSPGDFECVKAIAKAIKHCSVTGLARCVEGDIDRAEEALKDAVSPQIHIFLATSDVHMEYKLKMSRAEVLASIKHHISYARQKFDVVQFSPEDATRSDRAFLIEAVQTAIDAGATVINIPDTVGYTNPTEFGQLFQDLRREIKQFDDIIFASHCHDDLGMATANALAAIENGARRVEGTINGIGERAGNTALEEVAVALHIRKDFYQAETNIVLNQFKNSSDLISRLSGMPVPRNEGHHHHHH | soluble |
| MVIGVPKEIKTLENRVALTPGGVESLVRRGHTVLVERGAGEGSGLSDAEYARAGAELVGREEAWGAEMVVKVKEPLPEEYGFLREGLILFTYLHLAADRGLTEAMLRSGVTGIAYETVQLPDGTLPLLVPMSEVAGRMAPQVGAQFLEKPKGGRGVLLGGVPGVAPASVVILGGGTVGTNAAKIALGMGAQVTILDVNHKRLQYLDDVFGGRVITLTATEANIKKSVQHADLLIGAVLVPGAKAPKLVTRDMLSLMKEGAVIVDVAVDQGGCVETIRPTTHAEPTYVVDGVVHYGVANMPGAVPRTSTFALTNQTLPYVLKLAEKGLDALLEDAALLKGLNTHKGRLTHPGVAEAFGLPYTPPEEALRG | soluble |
| MNNVFVYCEIEGTTVADVSLELLTKGRKLANQLGCQLEAIAAGTGLAGIEKQVLPYGVDKLHVFDAPGLFPYTSLPHTSILVNLFKEEKPQICLMGATVIGRDLGPRVSSALTSGLTADCTQLEIGTHEDKKNGITYENLLYQIRPAFGGNIVATIVNPEHRPQMATVREGVMKKEILDENYKGEVVNHDVAKFVPETDYVV | not soluble |
| MEAESLADSGFPLEVFPQKMQSIIIDMVVHGNFKVDYVAMSMLSAASAALGNTYRIHVKQDWDTNAALYIILVGRPGMGKTPPLQLAYKPIREYERKLFDKFCHELDLYEAACATKESGSKEMKKPILKRVTLDDFTLEALVLEHYNNLRGIAINYDEILGLLANTDRYGKNPMLERLLSIWSGCHLENTRVKNDRPQRVEEPCVNIIGTTQTKRMKELMASKFMDTGFLDRILVVYPKSKKVPHWLDEEDSHVRQSEASRKWADIIGKIFGLDYARCNDTNECCPNILYMDKDAHSLFFGWWNRNVDAINAIEDDEDVETRVMKHNTHVARIALLLQALRYACGESHLQSIDVDSIEGALRLNEYCENCYQRCRAFVAEDTCDSMSKELLYLLEDSFDTKTAIKTGMENLHVTDRTVMNYIKELMKSGLITKAKKGFYEKVKFETGQATET | not soluble |
| MEIIHLSEIDSTNDYAKELAKEGKRNFIVLADKQNNGKGRWGRVWYSDEGGLYFSMVLDSKLYNPKVINLLVPICIIEVLKNYVDKELGLKFPNDIMVKVNDNYKKLGGILTELTDDYMIIGIGINVNNQIRNEIREIAISLKEITGKELDKVEILSNFLKTFESYLEKLKNKEIDDYEILKKYKKYSITIGKQVKILLSNNEIITGKVYDIDFDGIVLGTEKGIERIPSGICIHVR | soluble |
| MAKELCFEGITLKAFDEQYRSAINDFDLNERQQIYSSLPKEVIDDAINDVDRIANVAINDKNEVVGFFVLHRYYQHEGYDTPENVVYIRSLSINEKYQGFGYGTKIMMSLPQYVQGVFPDFNHLYLVVDAENDNAWNLYERAGFMHTATKEEGPIGKERLYYLDLDSKHVSSLKLEEESRSEVTNVHIINLMIDGQKVGFIALEQIGERMNIAAIEVDKSYRFNGIGSSALRQLPTYLRKNYDNLNVITMILFGENNDFKPLCLNSNFVEIEQTDDYVVFEKYLNY | not soluble |
| MAQSKLYPVVMAGGSGSRLWPLSRVLYPKQFLCLKGDLTMLQTTICRLNGVECESPVVICNEQHRFIVAEQLRQLNKLTENIILEPAGRNTAPAIALAALAAKRHSPENDPLMLVLAADHVIADEDAFRAAVRNAMPYAEAGKLVTFGIVPDLPETGYGYIRRGEVSAGEQDTVAFEVAQFVEKPNLETAQAYVASGEYYWNSGMFLFRAGRYLEELKKYRPDILDACEKAMSAVDPDLDFIRVDEEAFLACPEESVDYAVMERTADAVVVPMDAGWSDVGSWSSLWEISAHTAEGNVCHGDVINHKTENSYVYAESGLVTTVGVKDLVVVQTKDAVLIADRNAVQDVKKVVEQIKADGRHEHRVHREVYRPWGKYDSIDAGDRYQVKRITVKPGEGLSVQMHHHRAEHWVVVAGTAKVTIDGDIKLLGENESIYIPLGATHCLENPGKIPLDLIEVRSGSYLEEDDVVRFADRYGRV | soluble |
| MSSIGTGYDLAASTFSPDGRIFQVEYAQKAVDNAGTMIAIRGKNGVVVVADKLISSKLYTDNANPRMFNVNDNVGVAVAGNYPDGFALKNYAYGEAMKWLKDYREPMPIQNIANSVAEYIHIHTLGISRPFGAGAFFMSWNKQTGGRLFLVEPSGLNYEYKAWAVGKHRQAAKAEIEKLKIEELDVNQLVKEAARIIMVVRDENKDKNVQIEMGWVGEQTNGKYEEVPSEVVTAAEEWAIAKLDEDDMDD | not soluble |
